Measured values reported in patent publication CN113501874A (SANGON BIOTECH SHANGHAI CO LTD, dated 2021).

Molecular target: T1, 重组人CD47带his标签的蛋白 (human, UniProt Q08722 19-139, limits assumed)
T1 construct: Immunogen and ELISA coating antigen; also called 重组人CD47 his标签蛋白; 检测抗原; not shown: his tag
Assay: indirect ELISA; CD47-his coated at 3, 1.5, 0.75 and 0.375 mg/L; K=(N-1)/(N*AB'-AB), mean of 6 K values

T1 sequence (Q08722 19-139 limits assumed): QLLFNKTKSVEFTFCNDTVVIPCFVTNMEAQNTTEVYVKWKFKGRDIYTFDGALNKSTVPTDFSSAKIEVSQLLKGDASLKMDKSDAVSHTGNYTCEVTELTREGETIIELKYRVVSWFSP

- Ka: 1.39e+08 M⁻¹
B1: 单克隆细胞株7G7分泌的鼠抗人CD47单克隆抗体 (antibody, V domains shown)
VH: VKLQQSGAELARPGASVKLSCTASGYTFTDYYINWVRQRTGQGLEWIGDINPGRGKTYYIEKFKGKATLTADKSSSTAYMQLSSLTSEDSAVYFCARGGLRRFDYWGQGTTVTVSS
VL: DIELTQSPAIMSVSPGEKVTMTCRASSSVSSSYLHWYQQKSGVSPKLWIYSTSTLASGVPARFSGSGSGTSYSLTISSVEAADAATYYCQQYSGYPYTFGGGTKVEIKR
